Assay results taken from US20120316071A1 (published 2012).
Changes are numbered by the printed parent chain. Names and notes keep the numbering of the source.

B1: Fab VH1-46_IGHD6-6*01_IGHJ1*01 S102A/S103P/S104F/H111F/I51R/N52L/S54T/G56H (APFF RLTH) & L6_IGKJ1*01 (Fab, V domains shown)
VH: QVQLVQSGAEVKKPGASVKVSCKASGYTFTSYYMHWVRQAPGQGLEWMGIRLPTGHSTSYAQKFQGRVTMTRDTSTSTVYMELSSLRSEDTAVYYCAREEYAPFSAEYFQFWGQGTLVTVSS
VL: not shown
notes: Fab made in E. coli; CH1 with tags and kappa CL are not included
B2: Fab VH1-46_IGHD6-6*01_IGHJ1*01 S102A/S103P/S104F/H111F/N52L/S54T/G56H (APFF LTH) & L6_IGKJ1*01 (Fab, V domains shown)
VH: B1 VH with R51I
VL: not shown
notes: Fab made in E. coli; CH1 with tags and kappa CL are not included; also called H:APFF LTH & L:wt
B3: Fab VH1-46_IGHD6-6*01_IGHJ1*01 S102A/S103P/S104F/H111F/I51H/N52L/S54T/G56H (APFF HLTH) & L6_IGKJ1*01 (Fab, V domains shown)
VH: B1 VH with R51H
VL: not shown
notes: as for B1
B4: Fab VH1-46_IGHD6-6*01_IGHJ1*01 S102A/S103P/S104F/H111F/I51A/N52L/S54T/G56H (APFF ALTH) & L6_IGKJ1*01 (Fab, V domains shown)
VH: B1 VH with R51A
VL: not shown
notes: as for B1
B5: Fab VH1-46_IGHD6-6*01_IGHJ1*01 S102A/S103P/S104F/H111F/I51Y/N52L/S54T/G56H (APFF YLTH) & L6_IGKJ1*01 (Fab, V domains shown)
VH: B1 VH with R51Y
VL: not shown
notes: as for B1
B6: Fab VH1-46_IGHD6-6*01_IGHJ1*01 S102A/S103P/S104F/H111F/I51W/N52L/S54T/G56H (APFF WLTH) & L6_IGKJ1*01 (Fab, V domains shown)
VH: B1 VH with R51W
VL: not shown
notes: as for B1
B7: Fab VH1-46_IGHD6-6*01_IGHJ1*01 S102A/S103P/S104F/H111F/I51N/N52L/S54T/G56H (APFF NLTH) & L6_IGKJ1*01 (Fab, V domains shown)
VH: B1 VH with R51N
VL: not shown
notes: as for B1
B8: Fab VH1-46_IGHD6-6*01_IGHJ1*01 S102A/S103P/S104F/H111F/I51T/N52L/S54T/G56H & L6_IGKJ1*01 (Fab, V domains shown)
VH: B1 VH with R51T
VL: not shown
notes: Tested as Fab expressed in E. coli: VH cloned into plasmid A (CH1 constant region, His6 and Flag tags), kappa VL cloned into plasmid C (kappa CL); also called APFF TLTH; H:APFF TLTH
B9: Fab VH1-46_IGHD6-6*01_IGHJ1*01 S102A/S103P/S104F/H111F/I51T/N52L/P53H/S54T/G56H & L6_IGKJ1*01 (Fab, V domains shown)
VH: B1 VH with R51T, P53H
VL: not shown
notes: Tested as Fab expressed in E. coli (CH1 with His6/Flag tags from plasmid A; kappa CL from plasmid C); also called APFF TLHTH
B10: Fab VH1-46_IGHD6-6*01_IGHJ1*01 S102A/S103P/S104F/H111F/I51T/N52L/P53V/S54T/G56H & L6_IGKJ1*01 (Fab, V domains shown)
VH: B1 VH with R51T, P53V
VL: not shown
notes: Tested as Fab expressed in E. coli (CH1 with His6/Flag tags from plasmid A; kappa CL from plasmid C); also called APFF TLVTH
B11: Fab VH1-46_IGHD6-6*01_IGHJ1*01 S102A/S103P/S104F/H111F/I51T/N52L/P53W/S54T/G56H & L6_IGKJ1*01 (Fab, V domains shown)
VH: B1 VH with R51T, P53W
VL: not shown
notes: Tested as Fab expressed in E. coli (CH1 with His6/Flag tags from plasmid A; kappa CL from plasmid C); also called APFF TLWTH
B12: Fab VH1-46_IGHD6-6*01_IGHJ1*01 S102A/S103P/S104F/H111F/I51T/N52L/P53E/S54T/G56H & L6_IGKJ1*01 (Fab, V domains shown)
VH: B1 VH with R51T, P53E
VL: not shown
notes: Tested as Fab expressed in E. coli (CH1 with His6/Flag tags from plasmid A; kappa CL from plasmid C); also called APFF TLETH
B13: Fab VH1-46_IGHD6-6*01_IGHJ1*01 S102A/S103P/S104F/H111F/I51T/N52L/P53R/S54T/G56H & L6_IGKJ1*01 (Fab, V domains shown)
VH: B1 VH with R51T, P53R
VL: not shown
notes: Tested as Fab expressed in E. coli (CH1 with His6/Flag tags from plasmid A; kappa CL from plasmid C); also called APFF TLRTH
B14: Fab VH1-46_IGHD6-6*01_IGHJ1*01 S102A/S103P/S104F/H111F/I51T/N52L/P53T/S54T/G56H & L6_IGKJ1*01 (Fab, V domains shown)
VH: B1 VH with R51T, P53T
VL: not shown
notes: Tested as Fab expressed in E. coli (CH1 with His6/Flag tags from plasmid A; kappa CL from plasmid C); also called APFF TLTTH
B15: Fab VH1-46_IGHD6-6*01_IGHJ1*01 S102A/S103P/S104F/H111F/I51T/N52L/P53S/S54T/G56H & L6_IGKJ1*01 (Fab, V domains shown)
VH: B1 VH with R51T, P53S
VL: not shown
notes: Tested as Fab expressed in E. coli (CH1 with His6/Flag tags from plasmid A; kappa CL from plasmid C); also called APFF TLSTH
B16: Fab VH1-46_IGHD6-6*01_IGHJ1*01 S102A/S103P/S104F/H111F/I51T/N52L/P53N/S54T/G56H & L6_IGKJ1*01 (Fab, V domains shown)
VH: B1 VH with R51T, P53N
VL: not shown
notes: Tested as Fab expressed in E. coli (CH1 with His6/Flag tags from plasmid A; kappa CL from plasmid C); also called APFF TLNTH
B17: Fab VH1-46_IGHD6-6*01_IGHJ1*01 S102A/S103P/S104F/H111F/I51T/N52L/P53A/S54T/G56H & L6_IGKJ1*01 (Fab, V domains shown)
VH: B1 VH with R51T, P53A
VL: not shown
notes: Tested as Fab expressed in E. coli (CH1 with His6/Flag tags from plasmid A; kappa CL from plasmid C); also called APFF TLATH
B18: Fab VH1-46_IGHD6-6*01_IGHJ1*01 S102A/S103P/S104F/H111F/I51T/N52L/P53G/S54T/G56H & L6_IGKJ1*01 (Fab, V domains shown)
VH: B1 VH with R51T, P53G
VL: not shown
notes: Tested as Fab expressed in E. coli (CH1 with His6/Flag tags from plasmid A; kappa CL from plasmid C); also called APFF TLGTH
B19: Fab VH1-46_IGHD6-6*01_IGHJ1*01 S102A/S103P/S104F/H111F/I51T/N52L/P53M/S54T/G56H & L6_IGKJ1*01 (Fab, V domains shown)
VH: B1 VH with R51T, P53M
VL: not shown
notes: Tested as Fab expressed in E. coli (CH1 with His6/Flag tags from plasmid A; kappa CL from plasmid C); also called APFF TLMTH
B20: Fab VH1-46_IGHD6-6*01_IGHJ1*01 S102A/S103P/S104F/H111F/I51T/N52L/P53Y/S54T/G56H & L6_IGKJ1*01 (Fab, V domains shown)
VH: B1 VH with R51T, P53Y
VL: not shown
notes: Tested as Fab expressed in E. coli (CH1 with His6/Flag tags from plasmid A; kappa CL from plasmid C); also called APFF TLYTH

These binders were tested against T1, Recombinant Human DLL4 (delta-like protein 4) (human, UniProt Q9NR61 27-529) (assay: ELISA on coated DLL4, 100 nM Fab).
T1 construct: Bought recombinant human DLL4 (R&D Systems Cat#1506-D4/CF), coated on the plate; also called rHuman DLL4; Delta-like 4

| ELISA signal | Binder |
| --- | --- |
| 0.512 | B1 |
| 1.1 | B2 |
| 0.647 | B3 |
| 0.62 | B4 |
| 0.513 | B5 |
| 0.088 | B6 |
| 1.09 | B7 |

These binders were tested against T1, Recombinant Human DLL4 (delta-like …) (assay: 96-well plate ECL (MSD) binding assay on coated DLL4, 10 nM Fab).

| ECL signal | Binder |
| --- | --- |
| 92400 | B1 |
| 165000 | B2 |
| 155000 | B3 |
| 143000 | B4 |
| 155000 | B5 |
| 126000 | B6 |
| 126000 | B7 |

These binders were tested against T2, Recombinant Human DLL4 (human, UniProt Q9NR61 27-524) (assay: ELISA, DLL4 coated, 100 nM Fab).
T2 construct: Bought recombinant protein (R&D Systems Cat#1506-D4/CF), coated on the plate; also called delta-like protein 4; Delta-like 4

| ELISA signal | Binder |
| --- | --- |
| 0.641 | B8 |
| 0.287 | B9 |
| 0.035 | B10 |
| 0.433 | B11 |
| 0.017 | B12 |
| 0.07 | B13 |
| 0.219 | B14 |
| 0.076 | B15 |
| 0.021 | B16 |
| 0.33 | B17 |
| 0.018 | B18 |
| 0.341 | B19 |
| 0.274 | B20 |

What follows are binders tested against T2, Recombinant Human DLL4 (assay: ECL 96-well plate binding assay, DLL4 immobilised, 10 nM Fab).

| ECL signal | Binder |
| --- | --- |
| 123000 | B8 |
| 108000 | B9 |
| 91500 | B10 |
| 126000 | B11 |
| 91500 | B12 |
| 63200 | B13 |
| 125000 | B14 |
| 135000 | B15 |
| 114000 | B16 |
| 163000 | B17 |
| 103000 | B18 |
| 105000 | B19 |
| 99500 | B20 |
